Columns and labels:
[1] = biological target: T1, CD16A on primary human NK-cells (human, UniProt P08637 17-254); test: flow cytometry on primary human NK-cells, 37°C, without IgG; mean of 2 experiments
T1 construct: whole, on cells; also called FcγRIIIA
Description: (§1) After the last staining step, the cells were washed again and resuspended in 0.2 mL of FACS buffer containing 2 μg/mL propidium iodide (PI) (Sigma, cat.: P4170) in order to exclude dead cells. The fluorescence of 2-5×10³ living cells was measured using a Millipore Guava EasyCyte flow cytometer (Merck Millipore, Schwalbach, Germany). Mean fluorescence intensities of the cell samples were calculated using Incyte software (Merck Millipore, Schwalbach, Germany). After subtracting the fluorescence intensity values of the cells stained with the secondary and tertiary reagents alone, the values were used for non-linear regression analysis using the GraphPad Prism software (GraphPad Prism version 6.00 for Windows, GraphPad Software, La Jolla Calif. USA). For the calculation of KD, the equation for one-site-binding (hyperbola) was used.
(§2) To assess the impact of physiological concentrations of human IgG on the binding capacity of bispecific EGFR/CD16A antigen-binding proteins, binding assays with several bispecific EGFR/CD16A antigen-binding proteins on primary human NK-cells were performed in presence or absence of 10 mg/mL polyclonal human IgG as exemplarily shown in FIG. 10.

human EGFR on cells [2] = biological target: T2, human EGFR on cells (human, UniProt P00533 25-1210); test: cell-based or functional assay
CD16A-antigen (ELISA) = biological target: T3, CD16A-antigen (ELISA); test: ELISA, coated CD16A-Fc antigen, aTriFlex titrated (His-tagged analyte, Penta-HIS-HRP per paragraph 126)
T3 construct: also called CD16A-Fc
Description: (§3) 96-well ELISA plates (Immuno MaxiSorp; Nunc) were coated overnight at 4° C. with recombinant antigen or antibodies in 100 mM Carbonate-bicarbonate buffer. […] After a blocking step with 3% (w/v) skim milk powder (Merck) dissolved in PBS, serial dilutions of the different antibodies or soluble antigens in PBS containing 0.3% (w/v) skim milk powder were incubated on the plates for 1.5 h at room temperature. After washing three times with 300 μL per well of PBS containing 0.1% (v/v) Tween 20, plates were incubated with detection antibodies for 1 h at room temperature. For the detection of His-tagged analytes, Penta-HIS-HRP (Qiagen) was used at 1:3000 dilution. […] After washing three times with 300 μL per well of PBS containing 0.1% (v/v) Tween 20, plates were incubated with Tetramethylbenzidine (TMB) substrate (Seramun) until colour development was clearly visible. The reaction was stopped through the addition of 100 μL per well of 0.5 M H₂SO₄. The absorbance was measured at 450 nm using a multilabel plate reader (Victor, Perkin Elmer).

[3] = biological target: T1, CD16A on primary human NK-cells; test: flow cytometry on primary human NK-cells, 37°C, with 10 mg/mL polyclonal human IgG (Gammanorm); with 10 mg/mL polyclonal human IgG (Gammanorm)
human EGFR on cells [4] = biological target: T2, human EGFR on cells; test: cell-based or functional assay; remark: listed apart in the source
EGFR-antigen (ELISA) = biological target: T4, EGFR-antigen (ELISA); test: ELISA, coated EGFR-Fc antigen, aTriFlex titrated (His-tagged analyte, Penta-HIS-HRP per paragraph 126)
T4 construct: also called EGFR-Fc
Description: as §3

huCD16A^RV-His = biological target: T5, huCD16A^RV-His (human); test: ELISA, coated EGFR/CD16A Bi-scFv-Fc, soluble huCD16A^RV-His titrated (the concentration axis is that of the antigen), Penta-HIS-HRP per paragraph 126
T5 construct: soluble, His-tagged; also called CD16-His antigen
Description: as §3

EGFR-mFc = biological target: T6, EGFR-mFc; test: ELISA, coated EGFR-mFc antigen, Bi-scFv-Fc titrated, bound construct detected with biotinylated CD16-Fc and streptavidin-HRP
T6 construct: Coated at 2.5 µg/mL in ELISA; also called monomeric EGFR-mFc; EGFR-mFc antigen
Description: as §3

Mouse FcRn (FCGRT/B2M) = biological target: T7, Mouse FcRn (FCGRT/B2M) (mouse, UniProt Q61559 22-297; P01887 21-119, biotin-labelled (Avi-Tag)); test: SPR (Biacore T200), pH 6.0, biotinylated FcRn captured, multi cycle kinetics, 1:1 model
T7 construct: Purchased; also called murine FcRn; murine FcRn receptor
T7 sequence (looked up): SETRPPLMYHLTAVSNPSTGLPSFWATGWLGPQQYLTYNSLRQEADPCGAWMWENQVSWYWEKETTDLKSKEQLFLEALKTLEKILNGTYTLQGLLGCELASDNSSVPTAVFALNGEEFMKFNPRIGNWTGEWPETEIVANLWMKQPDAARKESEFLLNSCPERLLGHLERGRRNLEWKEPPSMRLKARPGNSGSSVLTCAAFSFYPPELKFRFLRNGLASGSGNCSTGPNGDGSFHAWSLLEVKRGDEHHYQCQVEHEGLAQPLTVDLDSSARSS
T7 sequence (b2m, looked up): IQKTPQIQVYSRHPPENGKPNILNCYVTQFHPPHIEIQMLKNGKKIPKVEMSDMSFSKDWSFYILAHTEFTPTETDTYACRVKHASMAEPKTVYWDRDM
Description: (§4) Binding of EGFR/CD16A antigen-binding proteins to FcRn (human, cynomolgus, murine) was measured on a Biacore T200 Instrument at 25° C. using PBS-T buffer pH 6.0 as running buffer and for dilution (1×Gibco PBS, 0.005% Tween20, titrated to pH 6.0 using 4 M HCl). For this purpose, a Multi Cycle Kinetic experiments was performed using Biotin CAPture Kit (GE Healthcare). For activation of the sensor surface, Biotin CAPture reagent (GE Healthcare) was injected to Flow Cells Fc 1-4 (100 sec, 5 μL/min) resulting in a response of 2100 RU-2800 RU. Biotinylated FcRn of different species were injected to Flow Cell Fc 2 (5 μL/min) resulting in a response of about 8-15 RU. A dilution series of EGFR/CD16A antigen-binding proteins was in (pH 7.4) as running buffer and for dilution. […] Chip was regenerated using Regeneration solution (GE Healthcare) (10 μL/min, Flow cells 1-4, 120 sec). Sensorgrams are referenced by subtraction of zero concentration cycle and subtraction of signals in reference channel Fc 1 (Fc 2-1, Fc 3-1, Fc 4-1). […] Chip was regenerated using Regeneration solution (GE Healthcare) (10 μL/min, Flow cells 1-4, 120 sec). […] Binding kinetics were evaluated by fitting data to 1:1 Binding Model (Rmax and RI locally fitted) using Biacore T200 Evaluation Software.

Human FcRn (FCGRT/B2M) = biological target: T8, Human FcRn (FCGRT/B2M) (human, UniProt P55899 24-297; P61769 21-119, biotin-labelled (site not stated)); test: as above
T8 construct: Purchased; also called FcRn (FCGRT/B2M), His-Tag, Biotin-Labeled, (Human) HiP Cat #71283
T8 sequence (P55899 24-297 limits assumed, chain 1 of 2): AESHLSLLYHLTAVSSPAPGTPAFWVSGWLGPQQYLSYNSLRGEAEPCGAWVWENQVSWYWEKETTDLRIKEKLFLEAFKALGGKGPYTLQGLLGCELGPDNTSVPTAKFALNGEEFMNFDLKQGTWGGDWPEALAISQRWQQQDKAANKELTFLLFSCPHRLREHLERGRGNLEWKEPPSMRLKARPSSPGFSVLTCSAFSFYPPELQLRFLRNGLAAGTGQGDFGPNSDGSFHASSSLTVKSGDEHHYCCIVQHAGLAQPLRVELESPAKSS
T8 sequence (P61769 21-119 limits assumed, chain 2 of 2): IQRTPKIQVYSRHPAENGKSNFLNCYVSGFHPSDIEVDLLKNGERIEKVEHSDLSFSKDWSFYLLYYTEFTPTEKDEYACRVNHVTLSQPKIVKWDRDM

[5] = biological target: T1, CD16A on primary human NK-cells; test: flow cytometry on primary human NK-cells, 37°C, with 10 mg/mL polyclonal human IgG (Gammanorm); mean of 2 experiments
Description: as §1, §2

[6] = biological target: T1, CD16A on primary human NK-cells; test: flow cytometry on primary human NK-cells, 37° C., without gammanorm
Description: as §1, §2

[7] = biological target: T9, Cynomolgus FcRn (FCGRT/B2M) (cynomolgus, UniProt Q8SPV9 24-297; Q8SPW0 21-119, biotin-labelled (Avi-Tag)); test: SPR (Biacore T200), pH 6.0, biotinylated FcRn captured, multi cycle kinetics, 1:1 model
T9 construct: Purchased; also called FcRn (FCGRT/B2M), Avi-Tag, Biotin-Labeled, (Cynomolgus) Acro Cat #FCM-C82W5
T9 sequence (Q8SPV9 24-297 limits assumed, chain 1 of 2): as the sequence (P55899 24-297 limits assumed, chain 1 of 2) above, with N39D, E44Q, G99S, S189G, S190N, L217M, S269T counted along it
T9 sequence (Q8SPW0 21-119 limits assumed, chain 2 of 2): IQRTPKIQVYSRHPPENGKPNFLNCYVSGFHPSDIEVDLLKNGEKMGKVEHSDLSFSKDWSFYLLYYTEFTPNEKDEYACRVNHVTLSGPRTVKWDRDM
Description: as §4

human EGFR on cells [8] = biological target: T2, human EGFR on cells; test: flow cytometry on EGFR-expressing A-431 cells, 37° C.
human EGFR on cells [9] = biological target: T2, human EGFR on cells; test: flow cytometry on A-431 cells, 37°C; mean of 4 experiments
human EGFR on cells [10] = biological target: T2, human EGFR on cells; test: cell-based or functional assay; remark: listed apart in the source

Row | Binder | Kd [1] [nM] | EC50 [pM] mean, 4 h calcein-release cytotoxicity, A-431 target cells, human NK-cells E:T 5:1 (human EGFR on cells [2]) [pM] | EC50 (read off the curve) (CD16A-antigen (ELISA)) [nM] | Kd [3] [nM] | EC50 [pM] mean, 4 h calcein-release cytotoxicity, HCT-116 target cells, human NK-cells E:T 5:1 (human EGFR on cells [4]) [pM] | EC50 (read off the curve) (EGFR-antigen (ELISA)) [nM] | EC50 (read off the curve) (huCD16A^RV-His) [nM] | EC50 (read off the curve) (EGFR-mFc) [µg/mL] | Kd (Mouse FcRn (FCGRT/B2M)) [nM] | Kd (Human FcRn (FCGRT/B2M)) [nM] | Kd [5] [nM] | EC50 (read off the curve) [6] [nM] | Kd [7] [nM] | EC50 (read off the curve) (human EGFR on cells [8]) [nM] | Kd (human EGFR on cells [9]) [nM] | EC50, inhibition of EGF-induced EGFR phosphorylation (phospho-EGFR ELISA, A-431 cells), Exp.2 (human EGFR on cells [10]) [µg/mL]
1 | EGFR/CD16A/HSA aTriFlex (other, also called EGFR/CD16A aTriFlex) chain 1: QVQLQESGPGLVKPSETLSLTCTVSGGSVSSGSYYWSWIRQPPGKGLEWIGYIYYSGSTNYNPSLKSRVTISVDTSKNQFSLKLSSVTAADTAVYYCARNPISIPAFDIWGQGTMVTVSSGGSGGSGGSGGSGGSGGSQPVLTQPPSVSVAPGKTARITCGGNNIGSKSVHWYQQKPGQAPVLVIYYDSDRPSGIPERFSGSNSGNTATLTISRVEAGDEADYYCQVWDTSSDHVLFGGGTKLTVLGGSGGSGGSSYVLTQPSSVSVAPGQTATISCGGHNIGSKNVHWYQQRPGQSPVLVIYQDNKRPSGIPERFSGSNSGNTATLTISGTQAMDEADYYCQVWDNYSVLFGGGTKLTVLGGSGGSGGSSYVLTQPSSVSVAPGQTATISCGGHNIGSKNVHWYQQRPGQSPVLVIYQDNKRPSGIPERFSGSNSGNTATLTISGTQAMDEADYYCQVWDNYSVLFGGGTKLTVLGGSGGSGGSEVQLLESGGGLVQPGGSLRLSCAVSGIDLSNYAINWVRQAPGKGLEWIGIIWASGTTFYATWAKGRFTISRDNSKNTVYLQMNSLRAEDTAVYYCARTVPGYSTAPYFDLWGQGTLVTVSSGGSGGSGGSGGSGGSGGSDIQMTQSPSSVSASVGDRVTITCQSSPSVWSNFLSWYQQKPGKAPKLLIYEASKLTSGVPSRFSGSGSGTDFTLTISSLQPEDFATYYCGGGYSSISDTTFGGGTKVEIK chain 2: QVQLVQSGAEVKKPGESLKVSCKASGYTFTSYYMHWVRQAPGQGLEWMGIINPSGGSTSYAQKFQGRVTMTRDTSTSTVYMELSSLRSEDTAVYYCARGSAYYYDFADYWGQGTLVTVSSGGSGGSGGSQVQLVQSGAEVKKPGESLKVSCKASGYTFTSYYMHWVRQAPGQGLEWMGIINPSGGSTSYAQKFQGRVTMTRDTSTSTVYMELSSLRSEDTAVYYCARGSAYYYDFADYWGQGTLVTVSS | 50.8 | 5.1 | ~4 | 456 | 17.6 | ~7 | – | – | – | – | – | – | – | – | – | –
2 | Bi-scFv-Fc_02 (bispecific antibody, human IgG1, Homodimer: anti-CD16A scFv-Hinge-CH2-CH3 (silenced)-anti-EGFR scFv; also called EGFR/CD16A Bi-scFv-Fc; Bi-scFv-Fc_2) SYVLTQPSSVSVAPGQTATISCGGHNIGSKNVHWYQQRPGQSPVLVIYQDNKRPSGIPERFSGSNSGNTATLTISGTQAMDEADYYCQVWDNYSVLFGGGTKLTVLGGSGGSGGSGGSGGSGGSGGSQVQLVQSGAEVKKPGESLKVSCKASGYTFTSYYMHWVRQAPGQGLEWMGIINPSGGSTSYAQKFQGRVTMTRDTSTSTVYMELSSLRSEDTAVYYCARGSAYYYDFADYWGQGTLVTVSSEPKSCDKTHTCPPCPAPEFEGGPSVFLFPPKPKDTLMISRTPEVTCVVVAVSHEDPEVKFNWYVDGVEVHNAKTKPREEQYNSTYRVVSVLTVLHQDWLNGKEYKCKVSNKALPAPIEKTISKAKGQPREPQVYTLPPSREEMTKNQVSLTCLVKGFYPSDIAVEWESNGQPENNYKTTPPVLDSDGSFFLYSKLTVDKSRWQQGNVFSCSVMHEALHNHYTQKSLSLSPGGGGGSGGGGSQVQLQESGPGLVKPSETLSLTCTVSGGSVSSGSYYWSWIRQPPGKGLEWIGYIYYSGSTNYNPSLKSRVTISVDTSKNQFSLKLSSVTAADTAVYYCARNPISIPAFDIWGQGTMVTVSSGGSGGSGGSGGSGGSGGSQPVLTQPPSVSVAPGKTARITCGGNNIGSKSVHWYQQKPGQAPVLVIYYDSDRPSGIPERFSGSNSGNTATLTISRVEAGDEADYYCQVWDTSSDHVLFGGGTKLTVL | 5 | 2.7 | – | – | 3.8 | – | ~4 | ~0.02 | 121 | 410 | 20 | ~6 | 268 | ~2 | – | –
3 | scFv-IgAb_01 (bispecific antibody) chain 1: QVQLQESGPGLVKPSETLSLTCTVSGGSVSSGSYYWSWIRQPPGKGLEWIGYIYYSGSTNYNPSLKSRVTISVDTSKNQFSLKLSSVTAADTAVYYCARNPISIPAFDIWGQGTMVTVSSASTKGPSVFPLAPSSKSTSGGTAALGCLVKDYFPEPVTVSWNSGALTSGVHTFPAVLQSSGLYSLSSVVVPSSSLGTQTYICNVNHKPSNTKVDKKVEPKSCDKTHTCPPCPAPEFEGGPSVFLFPPKPKDTLMISRTPEVTCVVVAVSHEDPEVKFNWYVDGVEVHNAKTKPREEQYNSTYRVVSVLTVLHQDWLNGKEYKCKVSNKALPAPIEKTISKAKGQPREPQVYTLPPSREEMTKNQVSLTCLVKGFYPSDIAVEWESNGQPENNYKTTPPVLDSDGSFFLYSKLTVDKSRWQQGNVFSCSVMHEALHNHYTQKSLSLSPGGGGGSGGGGSSYVLTQPSSVSVAPGQTATISCGGHNIGSKNVHWYQQRPGQSPVLVIYQDNKRPSGIPERFSGSNSGNTATLTISGTQAMDEADYYCQVWDNYSVLFGGGTKLTVLGGSGGSGGSGGSGGSGGSGGSQVQLVQSGAEVKKPGESLKVSCKASGYTFTSYYMHWVRQAPGQGLEWMGIINPSGGSTSYAQKFQGRVTMTRDTSTSTVYMELSSLRSEDTAVYYCARGSAYYYDFADYWGQGTLVTVSS chain 2: QPVLTQPPSVSVAPGKTARITCGGNNIGSKSVHWYQQKPGQAPVLVIYYDSDRPSGIPERFSGSNSGNTATLTISRVEAGDEADYYCQVWDTSSDHVLFGGGTKLTVLGQPKAAPSVTLFPPSSEELQANKATLVCLISDFYPGAVTVAWKADSSPVKAGVETTTPSKQSNNKYAASSYLSLTPEQWKSHRSYSCQVTHEGSTVEKTVAPTECS | – | – | – | – | – | – | – | – | – | – | – | – | – | – | 2 | > 100

Reference: patent US20200405833A1 (AFFIMED, published 2020)
